Measured values taken from the RNAGym collection of RNA variant scans (doi:10.7554/elife.80360).

B1: CPEB3 Ribozyme (parent)
chain: GGGGGCCACAGCAGAAGCGUUCACGUCGCGGCCCCUGUCAGAUUCUGGUGAAUCUGCGAAUUCUGCUGU

Variants of: B1
Test: self-cleavage, relative activity (ratio to wild type); higher = more cleavage; co-transcriptional

Variant	self-cleavage
GGGGGCCACAGCAGAAGCGUUUACGUCGCGGCCCCUGUCAGAUUCUGGUGAAUCUGCGAACUCUGCUGU [C22U U61C]	0.134
GGGGGCCACAGCAGAAGCGUUUACGUCGCGGCCCCUGUCAGAUUCUGGUGAAUCUGCGAAGUCUGCUGU [C22U U61G]	0.264
GGGGGCCACAGCAGAAGCGUUUACGUCGCGGCCCCUGCCAGAUUCUGGUGAAUCUGCGAAUUCUGCUGU [C22U U38C]	0.304
GGGGGCCACAGCAGAAGCGUUUACGUCGCGGCCCCUGACAGAUUCUGGUGAAUCUGCGAAUUCUGCUGU [C22U U38A]	0.272
GGGGGCCACAGCAGAAGCGUUUACGUCGCGGCCCCUGGCAGAUUCUGGUGAAUCUGCGAAUUCUGCUGU [C22U U38G]	0.141
GGGGGCCACAGCAGAAGCGUUUACGUCGCGGCCCCUGUCAGAUUCUGGUGAAUCUGCGAAUUCUGCUAU [C22U G68A]	0.48
GGGGGCCACAGCAGAAGCGUUUACGUCGCGGCCCCUGUCAGAUUCUGGUGAAUCUGCGAAUUCUGCUCU [C22U G68C]	0.517
GGGGGCCACAGCAGAAGCGUUCCCGUCGUGGCCCCUGUCAGAUUCUGGUGAAUCUGCGAAUUCUGCUGU [A23C C29U]	0.389
GGGGGCCACAGCAGAAGCGUUCCCGUCGAGGCCCCUGUCAGAUUCUGGUGAAUCUGCGAAUUCUGCUGU [A23C C29A]	0.603
GGGGGCCACAGCAGAAGCGUUUACGUCGCGGCCCCUGUCAGAUUCUGGUGAAUCUGCGAAUACUGCUGU [C22U U62A]	0.167
GGGGGCCACAGCAGAAGCGUUUACGUCGCGGCCCCUGUCAGAUUCUGGUGAAUCUGCGAAUGCUGCUGU [C22U U62G]	0.207
GGGGGCCACAGCAGAAGCGUUUACGUCGCGGCCCCUGUCAGAUUCUGGUGAAUCUCCGAAUUCUGCUGU [C22U G56C]	0.21
GGGGGCCACAGCAGAAGCGUUUACGUCGCGGCCCCUGUCAGAUUCUGGUGAAUCUACGAAUUCUGCUGU [C22U G56A]	0.187
GGGGGCCACAGCAGAAGCGUUUACGUCGCGGCCCCUGUCAGAUUCUGGUGAAUCUUCGAAUUCUGCUGU [C22U G56U]	0.169
GGGGGCCACAGCAGAAGCGUUUACGUCGCGGCCCCUGUCAGAUUCUGUUGAAUCUGCGAAUUCUGCUGU [C22U G48U]	0.401
GGGGGCCACAGCAGAAGCGUUUACGUCGCGGCCCCUGUCAGAUUCUGCUGAAUCUGCGAAUUCUGCUGU [C22U G48C]	0.313
GGGGGCCACAGCAGAAGCGUUCCCGUCGCGGCCCCUGUCAGAUUCUGGUGACUCUGCGAAUUCUGCUGU [A23C A52C]	0.921
GGGGGCCACAGCAGAAGCGUUCCCGUCGCGGCCCCUGUCAGAUUCUGGUGAUUCUGCGAAUUCUGCUGU [A23C A52U]	0.917
GGGGGCCACAGCAGAAGCGUUCCCGUCGCGGCCCCUGUCAGAUUCUGGUGAGUCUGCGAAUUCUGCUGU [A23C A52G]	0.963
GGGGGCCACAGCAGAAGCGUUUACGUCGCGGCCCCUGUCAGAUACUGGUGAAUCUGCGAAUUCUGCUGU [C22U U44A]	0.318
GGGGGCCACAGCAGAAGCGUUUACGUCGCGGCCCCUGUCAGAUCCUGGUGAAUCUGCGAAUUCUGCUGU [C22U U44C]	0.31
GGGGGCCACAGCAGAAGCGUUUACGUCGCGGCCCCUGUCAGAUGCUGGUGAAUCUGCGAAUUCUGCUGU [C22U U44G]	0.241
GGGGGCCACAGCAGAAGCGUUCCCGUCGCGGCCGCUGUCAGAUUCUGGUGAAUCUGCGAAUUCUGCUGU [A23C C34G]	0.36
GGGGGCCACAGCAGAAGCGUUCCCGUCGCGGCCACUGUCAGAUUCUGGUGAAUCUGCGAAUUCUGCUGU [A23C C34A]	0.696
GGGGGCCACAGCAGAAGCGUUUACGUCGCGGCCCCUGUCAGAUUCUGGUGAAUCUGCGAAUUCUGCAGU [C22U U67A]	0.369
GGGGGCCACAGCAGAAGCGUUCCAGUCGCGGCCCCUGUCAGAUUCUGGUGAAUCUGCGAAUUCUGCUGU [A23C C24A]	0.785

Variant	self-cleavage
GGGGGCCACAGCAGAAGCGUUCCUGUCGCGGCCCCUGUCAGAUUCUGGUGAAUCUGCGAAUUCUGCUGU [A23C C24U]	0.52
GGGGGCCACAGCAGAAGCGUUCCGGUCGCGGCCCCUGUCAGAUUCUGGUGAAUCUGCGAAUUCUGCUGU [A23C C24G]	0.414
GGGGGCCACAGCAGAAGCGUUUACGUCGCGGCCCCUGUCAGAGUCUGGUGAAUCUGCGAAUUCUGCUGU [C22U U43G]	0.222
GGGGGCCACAGCAGAAGCGUUUACGUCGCGGCCCCUGUCAGAAUCUGGUGAAUCUGCGAAUUCUGCUGU [C22U U43A]	0.217
GGGGGCCACAGCAGAAGCGUUUACGUCGCGGCCCCUGUCAGAUUCUGGUGAAUCAGCGAAUUCUGCUGU [C22U U55A]	0.182
GGGGGCCACAGCAGAAGCGUUUACGUCGCGGCCCCUGUCAGAUUCUGGUGAAUCGGCGAAUUCUGCUGU [C22U U55G]	0.169
GGGGGCCACAGCAGAAGCGUUUACGUCGCGGCCCCUGUCAGAUUCUGGUGAAUCCGCGAAUUCUGCUGU [C22U U55C]	0.157
GGGGGCCACAGCAGAAGCGUUUACGUCGCGGCCCCUGUCAGAUUCAGGUGAAUCUGCGAAUUCUGCUGU [C22U U46A]	0.29
GGGGGCCACAGCAGAAGCGUUUACGUCGCGGCCCCCGUCAGAUUCUGGUGAAUCUGCGAAUUCUGCUGU [C22U U36C]	0.157
GGGGGCCACAGCAGAAGCGUUUACGUCGCGGCCCCAGUCAGAUUCUGGUGAAUCUGCGAAUUCUGCUGU [C22U U36A]	0.196
GGGGGCCACAGCAGAAGCGUUUACGUCGCGGCCCCGGUCAGAUUCUGGUGAAUCUGCGAAUUCUGCUGU [C22U U36G]	0.175
GGGGGCCACAGCAGAAGCGUUUACGUCGCGGCCCCUGUCAGAUUCUGGCGAAUCUGCGAAUUCUGCUGU [C22U U49C]	0.294
GGGGGCCACAGCAGAAGCGUUUACGUCGCGGCCCCUGUCAGAUUCUGGGGAAUCUGCGAAUUCUGCUGU [C22U U49G]	0.247
GGGGGCCACAGCAGAAGCGUUUACGUCGCGGCCCCUGUCAUAUUCUGGUGAAUCUGCGAAUUCUGCUGU [C22U G41U]	0.164
GGGGGCCACAGCAGAAGCGUUUACGUCGCGGCCCCUGUCAAAUUCUGGUGAAUCUGCGAAUUCUGCUGU [C22U G41A]	0.185
GGGGGCCACAGCAGAAGCGUUUACGUCGCGGCCCCUGUCACAUUCUGGUGAAUCUGCGAAUUCUGCUGU [C22U G41C]	0.117
GGGGGCCACAGCAGAAGCGUUCCCGUCGCGGCCCCUGUCAGAUUCUGGUGAAUCUGCGAAUUCUGCUGU [A23C]	0.957
GGGGGCCACAGCAGAAGCGUUCCCGUCGCGGCGCCUGUCAGAUUCUGGUGAAUCUGCGAAUUCUGCUGU [A23C C33G]	0.439
GGGGGCCACAGCAGAAGCGUUCCCGUCGCGGCUCCUGUCAGAUUCUGGUGAAUCUGCGAAUUCUGCUGU [A23C C33U]	0.937
GGGGGCCACAGCAGAAGCGUUCCCGUCGCGGCCCCUGUCAGAUUCUGGUGGAUCUGCGAAUUCUGCUGU [A23C A51G]	0.899
GGGGGCCACAGCAGAAGCGUUCCCGUCGCGGCCCCUGUCAGAUUCUGGUGUAUCUGCGAAUUCUGCUGU [A23C A51U]	0.959
GGGGGCCACAGCAGAAGCGUUCCCGUCGCGGCCCCUGUCAGAUUCUGGUGCAUCUGCGAAUUCUGCUGU [A23C A51C]	0.942
GGGGGCCACAGCAGAAGCGUUUACGUCGCGGCCCCUGUCAGAUUCUGGUGAAUCUGCGAAUUCUGCUGG [C22U U69G]	0.462
GGGGGCCACAGCAGAAGCGUUUACGUCGCGGCCCCUGUCAGAUUCUGGUGAAUCUGCGAAUUCUGCUGA [C22U U69A]	0.384
GGGGGCCACAGCAGAAGCGUUUACGUCGCGGCCCCUGUCAGAUUCUGGUGAAUCUGCGAAUUCUGCUGC [C22U U69C]	0.601
GGGGGCCACAGCAGAAGCGUUUACGUCGCGGCCCCUGUCAGAUUCUUGUGAAUCUGCGAAUUCUGCUGU [C22U G47U]	0.37

Variant	self-cleavage
GGGGGCCACAGCAGAAGCGUUUACGUCGCGGCCCCUGUCAGAUUCUAGUGAAUCUGCGAAUUCUGCUGU [C22U G47A]	0.279
GGGGGCCACAGCAGAAGCGUUUACGUCGCGGCCCCUGUCAGAUUCUCGUGAAUCUGCGAAUUCUGCUGU [C22U G47C]	0.389
GGGGGCCACAGCAGAAGCGUUCCCGUCGCGGCCCCUGUCGGAUUCUGGUGAAUCUGCGAAUUCUGCUGU [A23C A40G]	0.92
GGGGGCCACAGCAGAAGCGUUCCCGUCGCGGGCCCUGUCAGAUUCUGGUGAAUCUGCGAAUUCUGCUGU [A23C C32G]	0.329
GGGGGCCACAGCAGAAGCGUUCCCGUCGCGGACCCUGUCAGAUUCUGGUGAAUCUGCGAAUUCUGCUGU [A23C C32A]	0.59
GGGGGCCACAGCAGAAGCGUUCCCGUCGCGGCCCCUGUCAGGUUCUGGUGAAUCUGCGAAUUCUGCUGU [A23C A42G]	0.901
GGGGGCCACAGCAGAAGCGUUUACGUCGCGGCCCCUGUCAGAUUCUGGUUAAUCUGCGAAUUCUGCUGU [C22U G50U]	0.312
GGGGGCCACAGCAGAAGCGUUUACGUCGCGGCCCCUGUCAGAUUCUGGUCAAUCUGCGAAUUCUGCUGU [C22U G50C]	0.243
GGGGGCCACAGCAGAAGCGUUUACGUCGCGGCCCCUGUCAGAUUCUGGUAAAUCUGCGAAUUCUGCUGU [C22U G50A]	0.355
GGGGGCCACAGCAGAAGCGUUUACGUCGCGGCCCCUGUCAGAUUCUGGUGAACCUGCGAAUUCUGCUGU [C22U U53C]	0.227
GGGGGCCACAGCAGAAGCGUUUACGUCGCGGCCCCUGUCAGAUUCUGGUGAAACUGCGAAUUCUGCUGU [C22U U53A]	0.193
GGGGGCCACAGCAGAAGCGUUUACGUCGCGGCCCCUGUCAGAUUCUGGUGAAGCUGCGAAUUCUGCUGU [C22U U53G]	0.111
GGGGGCCACAGCAGAAGCGUUCCCGUCGCGGCCCCUGUCAGAUUCUGGUGAAUCUGCGCAUUCUGCUGU [A23C A59C]	0.69
GGGGGCCACAGCAGAAGCGUUCCCGUCGCGGCCCCUGUCAGAUUCUGGUGAAUCUGCGGAUUCUGCUGU [A23C A59G]	0.96
GGGGGCCACAGCAGAAGCGUUUACGUCGCGGCCCCUGUCAGAUUCUGGUGAAUCUGCAAAUUCUGCUGU [C22U G58A]	0.255
GGGGGCCACAGCAGAAGCGUUUACGUCGCGGCCCCUGUCAGAUUCUGGUGAAUCUGCUAAUUCUGCUGU [C22U G58U]	0.374
GGGGGCCACAGCAGAAGCGUUUACGUCGCGGCCCCUGUCAGAUUCUGGUGAAUCUGCCAAUUCUGCUGU [C22U G58C]	0.223
GGGGGCCACAGCAGAAGCGUUUACGACGCGGCCCCUGUCAGAUUCUGGUGAAUCUGCGAAUUCUGCUGU [C22U U26A]	0.2
GGGGGCCACAGCAGAAGCGUUUACGUCGCGGCCCCUGUCAGAUUCUGGUGAAUCUGCGAAUUCUACUGU [C22U G65A]	0.216
GGGGGCCACAGCAGAAGCGUUUACGUCGCGGCCCCUGUCAGAUUCUGGUGAAUCUGCGAAUUCUUCUGU [C22U G65U]	0.195
GGGGGCCACAGCAGAAGCGUUUACGUCGCGGCCCCUGUCAGAUUCUGGUGAAUCUGCGAAUUCUCCUGU [C22U G65C]	0.248
GGGGGCCACAGCAGAAGCGUUCCCGUCGCGGCCCCUGUCAGAUUCUGGUGAAUCUGCGAGUUCUGCUGU [A23C A60G]	0.828
GGGGGCCACAGCAGAAGCGUUCCCGUCGCGGCCCCUGUCAGAUUCUGGUGAAUCUGCGACUUCUGCUGU [A23C A60C]	0.327
GGGGGCCACAGCAGAAGCGUUCCCGUUGCGGCCCCUGUCAGAUUCUGGUGAAUCUGCGAAUUCUGCUGU [A23C C27U]	0.358
GGGGGCCACAGCAGAAGCGUUCCCGUAGCGGCCCCUGUCAGAUUCUGGUGAAUCUGCGAAUUCUGCUGU [A23C C27A]	0.463
GGGGGCCACAGCAGAAGCGUUUACGUCGCGGCCCCUGUCAGAUUCUGGUGAAUCUGCGAAUUCAGCUGU [C22U U64A]	0.21
